Reference: US11466080B2, “Methods of treating cancer using anti-LRP1 polyclonal antibodies” (Children's Medical Center Corporation, priority 2017, dated 2022)
Read-outs that look alike come from different tables or passages of the source. One block for each molecule: values may come before it.

How the values were obtained:
PRSS2 = PRSS2 (Homo sapiens, UniProt P07478); experiment: Co-immunoprecipitation of LRP1 peptides with PRSS2; format: binding
Description: (§1) FIGS. 16A-16B. Co-immunoprecipitation of LRP1 peptides with PSAP (FIG. 16A) or PRSS2 (FIG. 16B).
(§2) To map the binding sites on LRP1 that binds to prosaposin (PSAP) and/or PRSS2, peptides derived from binding domain I of LRP1 (SEQ ID NOs: 3 and 7-18) were tested for their ability to co-immunoprecipitate with PSAP or PRSS2.

prosaposin (PSAP) = target: T1, prosaposin (PSAP) (Homo sapiens, UniProt P07602); experiment: Co-immunoprecipitation of LRP1 peptides with PSAP; format: binding
T1 sequence (P07602 60-524): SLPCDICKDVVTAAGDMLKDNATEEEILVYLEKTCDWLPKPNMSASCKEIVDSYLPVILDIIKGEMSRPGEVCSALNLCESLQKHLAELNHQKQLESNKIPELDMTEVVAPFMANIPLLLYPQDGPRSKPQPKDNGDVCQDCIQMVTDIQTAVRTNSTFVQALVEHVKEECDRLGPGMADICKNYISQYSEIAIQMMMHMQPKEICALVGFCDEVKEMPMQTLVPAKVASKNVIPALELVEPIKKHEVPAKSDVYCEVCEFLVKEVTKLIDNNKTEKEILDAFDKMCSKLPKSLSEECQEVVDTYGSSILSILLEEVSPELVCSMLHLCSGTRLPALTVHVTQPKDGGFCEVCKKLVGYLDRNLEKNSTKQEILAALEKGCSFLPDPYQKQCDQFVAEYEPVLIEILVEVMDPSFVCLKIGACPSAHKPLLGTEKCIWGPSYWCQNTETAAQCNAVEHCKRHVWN
Description: as §1, §2

Tsp-1 [1] = experiment: Western blot of Tsp-1 in lung fibroblasts treated with psap peptide; format: cell-based; conditions: peptide with 25 or 50 μg rhRAP or with Y27632
Description: FIGS. 8A-8B. Western blot analysis of Tsp-1 and β-actin expression in lung fibroblasts, which were (FIG. 8A) untreated (−) or treated with psap peptide alone or in combination with 25 or 50 μg of rhRAP, and (FIG. 8B) untreated (−) or treated with psap peptide alone or with Y27632.
In order to delineate the pathway leading from LRP1 to Tsp-1 stimulation by prosaposin, two pathways that have been reported to be stimulated by LRP1 under different conditions were chosen to be examined: Rho and Rac.

Tsp-1 [2] = experiment: Western blot of Tsp-1 in lung fibroblasts treated with LN4 conditioned media; format: cell-based; conditions: WI38 cells, LN4 CM with Rac1 inhibitor
Description: FIG. 11. Western blot analysis of Tsp-1 and β-actin expression in lung fibroblasts that were untreated (−) or treated with LN4 CM alone or in combination with STI.
FIG. 12. Western blot analysis of Tsp-1 and β-actin expression in lung fibroblasts that is were untreated (−) or treated with LN4 CM alone or in combination with Rac1 inhibitor.
Attention was then turned to the mechanism by which PC3M-LN4 cells repress Tsp-1 in the tumor microenvironment. In doing so, LN4 conditioned media (CM) was fractionated over a Cu^2+/heparin sepharose column with increasing concentrations of NaCl. The eluted fractions were used to treat lung fibroblasts and Tsp-1 induction was analyzed by western blot. […] By analyzing the protein content of the eluted fractions by tandem liquid chromatography/mass spectrometry (LC/MS), a protein was identified that was present in the active fractions of LN4 CM, but not present in the adjacent fractions or the fractions eluted with the same NaCl concentrations from PC3 CM. The identified protein was the serine protease PRSS2. […] Finally, the signaling pathway emanating from LRP1 that was mediating the PRSS2-induced repression of Tsp-1 was sought to be delineated. […]

p53 = experiment: Western blot of p53 in prostate fibroblasts treated with PC3-conditioned media; format: cell-based
Description: (§3) FIGS. 6A-6B. Western blot analysis of: (FIG. 6A) Tsp-1 and β-actin expression in prostate fibroblasts that were untreated (−) or treated with conditioned media from PC3 cells alone or in combination with RAP, and (FIG. 6B) Tsp-1, p53 and β-actin expression in prostate fibroblasts that were untreated (−) or treated with conditioned media from PC3 cells alone or in combination with the PKC inhibitor Gδ 6983 (PKCi).
(§4) Thus, in order to determine how prosaposin was able to stimulate the expression of Tsp-1 and p53 in tumor-associated fibroblasts, prostate fibroblasts were treated with PC3-conditioned media in the presence and absence of Receptor Associate Protein (RAP), a competitive inhibitor or LRP1 binding. […] To determine whether prosaposin-mediated stimulation of Tsp-1 utilized this pathway, fibroblasts were treated with CM from PC3 cells in the presence and absence of the PKC inhibitor Gö 6983. […] Thus, it is believed that Prosaposin functions via binding to LRP1.

Tsp-1 [3] = experiment: Western blot of Tsp-1 in prostate fibroblasts treated with PC3-conditioned media; format: cell-based
Description: as §3, §4

PRSS2, sequence (P07478 16-247 limits assumed): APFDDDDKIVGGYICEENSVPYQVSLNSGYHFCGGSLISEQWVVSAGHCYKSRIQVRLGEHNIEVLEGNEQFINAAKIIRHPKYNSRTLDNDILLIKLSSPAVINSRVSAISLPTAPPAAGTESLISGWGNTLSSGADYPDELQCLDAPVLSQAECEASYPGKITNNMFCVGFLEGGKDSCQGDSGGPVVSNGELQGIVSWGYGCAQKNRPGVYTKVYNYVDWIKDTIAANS

binding to PRSS2 (co-immunoprecipitation) (PRSS2; listed as peptide 12): bind to both PRSS2 and PSAP | binding to PSAP (co-immunoprecipitation) (prosaposin (PSAP); listed as peptide 12): bind to both PRSS2 and PSAP
Molecule: Peptide 12: amino acids 140-164 of LRP1, SEQ ID NO: 18, YGTCSQLCTNTDGSFICGCVEGYLL
binding to PRSS2 (co-immunoprecipitation) (PRSS2): Peptide 12 (amino acids 140-164 of LRP1, binds to

binding to PRSS2 (co-immunoprecipitation) (PRSS2; listed as peptide 13): bind to both PRSS2 and PSAP | binding to PSAP (co-immunoprecipitation) (prosaposin (PSAP); listed as peptide 13): bind to both PRSS2 and PSAP
Molecule: Peptide 13: amino acids 151-172 of LRP1, SEQ ID NO: 3, FICGCVEGYLLQPDNRSCKAKN

Molecule: C[C@@H](N)[C@H]1CC[C@H](C(=O)Nc2ccncc2)CC1 [Peptide Y27632, Y27632, reference compound]
effect of co-treatment on stimulation of Tsp-1 by the peptide (Tsp-1 [1]): completely abrogated

Molecule: CCN(CC)CCCC(C)Nc1nc(C)cc(Nc2ccc3nc(C)cc(N)c3c2)n1 (racemic) [Rac1 inhibitor]
Tsp-1 levels under LN4 CM in presence of the substance (Tsp-1 [2]): restored to basal levels

Molecule: COc1ccc2c(c1)c(C1=C(c3c[nH]c4ccccc34)C(=O)NC1=O)cn2CCCN(C)C [Gö 6983, reference compound]
stimulation of p53 by PC3-conditioned media in the presence of the substance (p53): abolished the stimulation of Tsp-1 and p53 | stimulation of Tsp-1 by PC3-conditioned media in the presence of the substance (Tsp-1 [3]): abolished the stimulation of Tsp-1 and p53

B1: RAP: Receptor Associate Protein (RAP), a competitive inhibitor or LRP1 binding (protein, UniProt P30533 35-357, looked up)
Alpha-2-macroglobulin …: YSREKNQPKPSPKRESGEEFRMEKLNQLWEKAQRLHLPPVRLAELHADLKIQERDELAWKKLKLDGLDEDGEKEARLIRNLNVILAKYGLDGKKDARQVTSNSLSGTQEDGLDDPRLEKLWHKAKTSGKFSGEELDKLWREFLHHKEKVHEYNVLLETLSRTEEIHENVISPSDLSDIKGSVLHSRHTELKEKLRSINQGLDRLRRVSHQGYSTEAEFEEPRVIDLWDLAQSANLTDKELEAFREELKHFEAKIEKHNHYQKQLEIAHEKLRHAESVGDGERVSRSREKHALLEGRTKELGYTVKKHLQDLSGRISRARHNEL
effect of co-treatment on stimulation of Tsp-1 by the peptide (Tsp-1 [1]): blocked the stimulation of Tsp-1 in a dose-dependent fashion | stimulation of Tsp-1 by PC3-conditioned media in the presence of the substance (Tsp-1 [3]): no longer stimulated Tsp-1
